This is an account of results in patent publication US20220306762A1 (CRYSTAL BIOSCIENCE, published 2022).

In assay [1] the target is T1, His-tagged human CD38 (ACRO Biosystems CD8-H5224) (human, UniProt P28907 43-300).
T1 construct: bought protein; used for ELISA coating and as SPR analyte; not shown: His tag
The assay can be described thus: SPR (second run), His-tagged CD38.

Assay [2] has as its target T2, His-tagged cynomolgus monkey CD38 (ACRO Biosystems, CD8-05223 [sic]) (cynomolgus monkey, UniProt Q5VAN0 43-301).
T2 construct: bought protein; used for ELISA coating and as SPR analyte; not shown: His tag
The assay can be described thus: SPR (second run), His-tagged CD38.

Assay [3] concerns the target T3, His-tagged human CD38 (ACRO Biosystems cat #CD8-H5224) (human, UniProt P28907 43-300).
T3 construct: bought recombinant protein with His tag
The assay can be described thus: ELISA, coated His-CD38. A general note: An ELISA detects its analyte on a solid surface through an enzyme-linked reagent.

In assay [4] the target is T4, His-tagged cynomolgus monkey CD38 (ACRO Biosystems cat #CD8-05223) (cynomolgus monkey, UniProt Q5VAN0 43-301).
T4 construct: bought recombinant protein with His tag
In words: ELISA, coated His-CD38.

Assay [5] deals with T5, His-tagged mouse CD38 (ACRO Biosystems #CD8-M5223) (mouse, UniProt P56528 45-304).
T5 construct: bought recombinant protein with His tag; also called Murine
T5 sequence (looked up): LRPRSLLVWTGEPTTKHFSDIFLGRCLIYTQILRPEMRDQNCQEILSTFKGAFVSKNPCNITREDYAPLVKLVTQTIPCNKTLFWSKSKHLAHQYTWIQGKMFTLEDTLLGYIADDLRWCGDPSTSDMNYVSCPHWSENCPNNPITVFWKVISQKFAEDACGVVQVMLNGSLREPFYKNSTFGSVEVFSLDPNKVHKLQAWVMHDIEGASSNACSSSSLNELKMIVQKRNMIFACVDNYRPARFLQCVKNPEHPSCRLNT
The assay can be described thus: ELISA, coated His-CD38.

Assay [6] deals with T3, His-tagged human CD38 (ACRO Biosystems …). The assay can be described thus: SPR, captured scFv-Fc, His-CD38 analyte.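 Note: SPR on a Carterra LSA, scFv-Fc captured by anti-human Fc on HC30M chip, His-tagged CD38 (human, mouse, cynomolgus) flowed as analyte in eight 1:2 steps from 400 nM.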
For assay [7], the target named is T4, His-tagged cynomolgus monkey CD38 (ACRO …). The assay can be described thus: SPR, captured scFv-Fc, His-CD38 analyte. (In general: In SPR one partner is held on a chip, and binding of the other changes the refractive index at the surface.)
The target in assay [8] is T5, His-tagged mouse CD38 (ACRO Biosystems …). The assay can be described thus: SPR, captured scFv-Fc, His-CD38 analyte.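 Note: SPR on a Carterra LSA, scFv-Fc captured by anti-human Fc on HC30M chip, His-tagged CD38 (human, mouse, cynomolgus) flowed as analyte in eight 1:2 steps from 400 nM.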
The target in assay [9] is T6, human CD38 on transiently transfected Expi293 cells (Origene #SC321273) (human, UniProt P28907 1-300).
T6 construct: whole, on cells; also called Human (FACs)
The assay can be described thus: flow cytometry, transfected Expi293 cells.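 Note: antibody binding to Expi293 cells transiently expressing human or murine CD38, antibodies applied at 10 ug/ml for 60 min on ice, read by flow cytometry as percent gated cells.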 Background: Flow cytometry measures light scatter and fluorescence of single cells or particles in a stream.

Assay [10] concerns the target T7, murine CD38 on transiently transfected Expi293 cells (Origene MC208001) (murine, UniProt P56528 1-304).
T7 construct: whole, on cells; also called Murine (FACs)
T7 sequence (looked up): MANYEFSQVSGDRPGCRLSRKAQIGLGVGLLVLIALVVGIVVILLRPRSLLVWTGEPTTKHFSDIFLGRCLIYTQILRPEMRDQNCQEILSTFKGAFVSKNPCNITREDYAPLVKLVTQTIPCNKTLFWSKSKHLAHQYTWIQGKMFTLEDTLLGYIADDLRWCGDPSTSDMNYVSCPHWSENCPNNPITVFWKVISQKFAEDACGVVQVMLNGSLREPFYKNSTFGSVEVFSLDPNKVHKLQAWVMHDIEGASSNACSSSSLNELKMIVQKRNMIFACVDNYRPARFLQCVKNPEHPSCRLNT
The assay can be described thus: flow cytometry, transfected Expi293 cells.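 Note: antibody binding to Expi293 cells transiently expressing human or murine CD38, antibodies applied at 10 ug/ml for 60 min on ice, read by flow cytometry as percent gated cells.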

Assay [11] has as its target T1, His-tagged human CD38 (ACRO Biosystems …). In words: SPR, IgG.
Assay [12] concerns the target T2, His-tagged cynomolgus monkey CD38 (ACRO …). The assay can be described thus: SPR, IgG.

As usually defined, the Kd is the free concentration of one partner at which half of the binding sites on the other are occupied at equilibrium, for simple one-to-one binding.

Changes are numbered by the printed parent chain.

B1: 40769p1.1.A2 (scFv, V domains shown)
VH: EVQLLESGGGLVQPGGSLRLSCAASGFLFDDYGMSWVRQAPGKGLEWVSAISYKGGSTYYADSVKGRFTISRDNSKNTLYLQMSSLRAEDTAVYYCAKDHKWNYYGMDVWGQGTTVTVSS
VL: QSVLTQPPSASGTPGQRVTISCSGSTSNIGNDNYVSWYQQLPGTAPRLLIYKDDQRPSGVPDRFSGSKSGTSASLAISGLQSEDEADYYCGTWDDRLNAWVFGGGTKLTVL
As to B1, the Kd in [1] is 0.82 nM; in assay [2], 0.72 nM.

B2: 40617p1.1.F1 (scFv, V domains shown)
VH: KVQLLESGGGLVQPGGSLRLSCAASGFTFSSYSMTWVRQAPGKGLEWVSRIYNGGSTYYADSVKGRFTISRDNSKNTLYLQMNSLRAEDTAVYYCARDTYAIDVWGQGTTVTVSS
VL: EIVLTQSPATLSVSPGERATLSCRASQGIAGNLAWYQQKPGQAPRLLIYAASNRATGIPARFSGSGSGTDFTLTISSLQSEDFAVYYCQHYYDWPPYSFGGGTKVEIK
On to B2, for which the values for the Kd in assay [1] and in [2] were 119 nM and 786 nM, respectively.

B3: 40769p1.1.A4 (scFv, V domains shown)
VH: EVQLLESGGGLVQPGGSLRLSCTASGITFSRFNMFWVRQAPGKGLEFVASIRDDGSWTYYADSVKGRFTISRDNSKNTLYLQMNSLRAEDTAVYYCAKDYNSKDFIYHYVMDVWGQGTTVTVSS
VL: QSVLTQPPSASGTPGQRVTISCSGRNSNIGNNVVNWYQQLPGTAPKLLIYKDDQRPSGVPDRFSGSKSGTSASLAISGLQSEDEADYYCSTWDDSLNGWVFGGGTKLTVL
notes: tested as scFv-Fc supernatant
Consider B3, for which the “ELISA 1 ug/ml” value in assay [3] came out at 1.67; in assay [4], 1.78; in [5], 0.049. Also, the Kd in [6] was 54400 nM; in assay [7] it was 0.106 nM; in assay [8] it was 675000 nM. In addition, the “FACs 10 ug/ml (percent gated)” value in [9] is 69.9%; in [10], 3.09%.

B4: 40769p1.1.G12 (scFv, V domains shown)
VH: EVQLLESGGGLVQPGGSLRLSCAASGFTFDDYVMSWVRQAPGKGLEWVSEISESDGSNKYYADSVKGRFIISRDNSKNTLYLQMNSLRAEDTAVYYCARLEPEKYYGMDVWGQGTTVTVSS
VL: B3 VL with R25S, V33L, N35S, K51R, D52H, Q54H, S90A, W99R, V100A
Regarding B4, the Kd in [1] is 2.81 nM; in [2], 15.3 nM.

B5: 40769p2.2.G3 IgG (antibody, V domains shown)
VH: B3 VH with R67Q, N101S
VL: B3 VL with K51R, D52N, D53Q, Q54E, S90A, T91S, G98A, G103R
notes: IgG
For the molecule B5, the Kd came out at 50.4 nM in assay [11] and 205 nM in assay [12].

B6: 40769p1.1.B8 (scFv, V domains shown)
VH: EVQLLESGGGLVQPGGSLRLSCAASGFTFEDYAMSWVRQAPGKGLEWVSVISSKGGSTSNADSVKGRFTISRDNSKNTLYLQMNSLRAEDTAVYYCAKGMERQYYSYNAMDVWGQGTTVTVSS
VL: QSVLTQPPSASGTPGQRVTISCSGSNSNIDVDYVYWYQQLPGTAPRLLIYKDDQRPSGVPDRFSGSKSGTSASLAISGLQSEDEADYYCATWDDNLNSWLFGGGTKLTVL
Regarding B6, the Kd in assay [1] amounted to 0.25 nM; in [2] it was 3.29 nM.

B7: 40769p1.2.E3 (scFv, V domains shown)
VH: EVQLLESGGDLVQPGGSLRLSCGASGFTFSDHYMSWVRQAPGKGLEWVADISARGSNTWYADSVKGRFTISRDNSENTLYLQMNSLRAEDTAVYYCAKNWNYNYGMDVWGQGTTVTVSS
VL: QSVLTQAPSASGTPGQRVTISCSGSSIQNNYVSWYQQLPGTAPKLLIYRNFERPSGVPDRFSASKSGTSASLAISGLQSEDEADYYCASWDDSLNWVFGGGTKLTVL
As to B7, the results for the dissociation constant (Kd) in assay [1] and in [2] were 6.74 nM and 4.9 nM, respectively.

B8: 40769p1.2.B4 (scFv, V domains shown)
VH: B7 VH with Q111H
VL: B7 VL
For B8, the Kd turned out to be 8.02 nM in [1] and 7.84 nM in assay [2].

B9: 40769p1.2.F9 (scFv, V domains shown)
VH: B7 VH
VL: B7 VL with E80G
For the molecule B9, the results for the Kd in assay [1] and in assay [2] were 8.85 nM and 8.27 nM, respectively.

B10: 40769p1.1.G5 (scFv, V domains shown)
VH: EVQLLESGGGFVQPGGSLRLSCAASGFNFNNAWMNWVRQAPGKGLEWVGIINGDGTNTYYADSVKGRFTISRDNSKNTLYLQMSSLRAEDTAIYYCARDNKLNDYYYAMDVWGQGTTVTV
VL: QSVLTQPSSASGTPGQRVTISCSGGSSNIHANYVYWYQQLPGTAPKLLIYRNSQRPSGVPDRFSGSKSGTSASLAISGLQSEDEADYYCGTWDNILNVWVFGGGTKLTVL
As for B10, the Kd in assay [1] stood at 7.56 nM; in assay [2], 28.1 nM.

B11: 40769p2.2.D3 IgG (antibody, V domains shown)
VH: EVQLLESGGGLIQPGGSLRLSCTASGFDFSSYGMHWVRQAPGKGLEWVGIISDSGGTTYYADSVKGRFTISRDNSKNTLYLQMNSLRAEDTALYYCASYIMDVWGQGITVTVSS
VL: QSVLTQPPSASGTPGQRVTISCSGSNSNVGVNSVYWYQQLPGTAPKLLIYGSGRRPSGVPDRFSVSKSGTSASLAISGLQSEDEADYYCAAWDGGLNAWVFGGGTKLTVL
notes: IgG
For the molecule B11, the Kd in [11] is 41.3 nM; in assay [12], 348 nM.

B12: 40769p1.2.B10 (scFv, V domains shown)
VH: EVQLLESGGGLVQPGGSLRLSCPASGFDFSSYWMTWVRQAPGKGLEWVSTITDSGGRAWYADSVRGRFTISRDNSKNTLYLQMNSLRAEDTAVYYCARDTPKTYYYYAMDVWGQGTTVTV
VL: QSALTQPPSASGTPGQRVTISCSGSSSNIQYSYVSWYQQLPGTAPKLLIYNNVQRPSGVPDRFSGSKSGTSASLAISGLQSEDEADYYCATWDESLLGLWVFGGGTKLTVL
notes: tested as scFv-Fc supernatant
As to B12, the “ELISA 1 ug/ml” value was determined as 1.7 in assay [3], 1.68 in assay [4] and 1.14 in assay [5]. In addition, the Kd worked out at 1.43 nM in assay [6], 18 nM in [7] and 56300 nM in assay [8]. Besides, the “FACs 10 ug/ml (percent gated)” value amounted to 86.3% in [9] and 4.81% in [10].

B13: 40769p1.1.E2 (scFv, V domains shown)
VH: EVLLLESGGGLVQPGGSLRLSCAASGFTFSDYWMSWVRQAPGKGLEWVSTISISAGIIYYADSVKGRFTISRDNSKNTLYLQMNSLRAEDTAVYYCAKDNWNDYYGMDVWGQGTTVTVSS
VL: QSVLTQPPSASGTPGQRVTMSCSGNNQNIRDNYVYWYQQVPGTAPKLLIYKDDQRPSGVPDRFSGSKSGTSASLAISGLQSEDEADYYCATWDGSLKARVFGGGTKLTVL
For B13, the results for the Kd in [1] and in assay [2] were 6.99 nM and 8.31 nM, respectively.

B14: 40769p1.1.H1 (scFv, V domains shown)
VH: B13 VH with L3Q, S35N, I53S, S54G, A55G, G56S, I57M, Y60H, A88P
VL: B13 VL with T19N, M20I, N25S, N26S, Q27S, D31Y, G78E, K97N
As for B14, the figures for the Kd in assay [1] and in [2] were 58.5 nM and 59.9 nM, respectively.

B15: 40769p1.1.G10 (scFv, V domains shown)
VH: B13 VH with L3Q, S35N, I53S, S54G, A55G, G56S, I57M, Y60H, A88P
VL: B13 VL with T19N, M20I, N25S, N26S, Q27S, D31Y, K67E, K97N
For B15, the equilibrium dissociation constant (Kd) was found to be 1.71 nM in assay [1] and 72.1 nM in [2].
